Source: US20230331821A1 (VIR BIOTECHNOLOGY, published 2023)
Where two headings read alike, the source gives them in different places.

Legend:
SARS1 Spike [1] = test: ELISA, antigen coated on the plate, OD 405 nm
SARS1 Spike [2] = test: ELISA, antigen coated on the plate, OD 405 nm; remark: listed apart in the source

B1: S110 (antibody, V domains shown)
VH: QVQLVESGGGLVQAGGSLRLSCAASGRTFSSAGMAWFRQAPGKEREFVATSNWNGGDTDYADSVKGRFTISRDNAKNTVYLQMNNLKPEDTAVYYCAAHLQKYGGDYYARIWGQGTQVTVS
B1 was tested, and the “EC50 (read off the curve)” value (SARS1 Spike [1]) was roughly 0.03 µg/mL and the “EC50 (read off the curve)” value (SARS1 Spike [2]) was roughly 0.03 µg/mL.
